First the molecules themselves.
B1: Gamma-crystallin B, P02526 (parent)
chain: MGKITFYEDRGFQGHCYECSSDCPNLQPYFSRCNSIRVDSGCWMLYERPNYQGHQYFLRRGDYPDYQQWMGFNDSIRSCRLIPQHTGTFRMRIYERDDFRGQMSEITDDCPSLQDRFHLTEVHSLNVLEGSWVLYEMPSYRGRQYLLRPGEYRRYLDWGAMNAKVGSLRRVMDFY

Where “and” joins values, the source holds several entries; their conditions need not be identical. Equal values may be shown once.

In this data set the parent is B1. The settings on record: Bos taurus; pH 2; 20 °C; Urea; Fluorescence; NaCl-HCl 100 mM; reversible: yes; structure 4GCR; whole UniProt chain shown.
Consider MGKITFYEDRGFQGHCYECSSDCPNLQPYFSRCNSIRVDSGCWMLYERPNYQGHQYWLRRGDYPDYQQWMGFNDSIRSCRLIPQHTGTFRMRIYERDDFRGQMSEITDDCPSLQDRFHLTEVHSLNVLEGSWVLYEMPSYRGRQYLLRPGEYRRYLDWGAMNAKVGSLRRVMDFY [F57W], for which the “denaturant midpoint (higher = more stable)” value was 1.5 M and 4.2 M.

For the origin of these results see FireProtDB (doi:10.1002/pro.5560060717).
